Experimental data: CN116284393A (BEIJING DONGFANG BIOTECH CO LTD, dated 2023)

Legend:
[1] = molecular target: T1, LILRB3 (UniProt O75022 24-443, limits assumed); assay: ELISA, coated protein 100ng/well
[2] = molecular target: T2, LILRA4 (UniProt P59901 24-446, limits assumed); assay: ELISA, coated protein 100ng/well
[3] = molecular target: T3, LILRA1 (UniProt O75019 17-461, limits assumed); assay: ELISA, coated protein 100ng/well
[4] = molecular target: T4, LILRB1 (UniProt Q8NHL6 24-461, limits assumed); assay: ELISA, coated protein 100ng/well
T4 sequence (Q8NHL6 24-461 limits assumed): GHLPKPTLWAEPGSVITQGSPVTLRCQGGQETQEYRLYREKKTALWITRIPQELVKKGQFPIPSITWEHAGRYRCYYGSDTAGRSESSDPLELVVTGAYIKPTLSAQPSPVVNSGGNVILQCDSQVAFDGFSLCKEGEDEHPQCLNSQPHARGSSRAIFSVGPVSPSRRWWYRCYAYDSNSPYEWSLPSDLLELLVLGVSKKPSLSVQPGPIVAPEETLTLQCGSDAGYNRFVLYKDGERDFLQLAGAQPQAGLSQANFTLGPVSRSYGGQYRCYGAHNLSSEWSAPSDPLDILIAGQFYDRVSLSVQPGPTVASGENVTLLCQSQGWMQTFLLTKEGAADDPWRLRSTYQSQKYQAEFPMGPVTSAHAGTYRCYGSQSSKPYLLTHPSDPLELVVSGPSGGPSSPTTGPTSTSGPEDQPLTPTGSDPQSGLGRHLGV

[5] = molecular target: T5, LILRA6 (UniProt Q6PI73 24-447, limits assumed); assay: ELISA, coated protein 100ng/well
T5 sequence (Q6PI73 24-447 limits assumed): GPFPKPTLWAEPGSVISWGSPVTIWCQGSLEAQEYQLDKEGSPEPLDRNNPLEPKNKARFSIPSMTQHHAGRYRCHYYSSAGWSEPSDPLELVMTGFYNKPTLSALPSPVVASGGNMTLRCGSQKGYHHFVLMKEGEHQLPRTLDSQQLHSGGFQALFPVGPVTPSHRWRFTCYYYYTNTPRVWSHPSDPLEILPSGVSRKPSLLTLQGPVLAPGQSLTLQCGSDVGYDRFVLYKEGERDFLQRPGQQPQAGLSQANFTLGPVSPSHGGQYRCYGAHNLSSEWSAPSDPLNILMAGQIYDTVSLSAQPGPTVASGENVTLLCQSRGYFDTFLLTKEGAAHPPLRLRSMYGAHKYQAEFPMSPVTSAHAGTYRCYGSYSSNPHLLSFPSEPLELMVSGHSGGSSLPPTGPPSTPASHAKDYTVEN

[6] = molecular target: T6, LILRB2 (UniProt Q8N423 22-460, limits assumed); assay: ELISA, coated protein 100ng/well
T6 sequence (Q8N423 22-460 limits assumed): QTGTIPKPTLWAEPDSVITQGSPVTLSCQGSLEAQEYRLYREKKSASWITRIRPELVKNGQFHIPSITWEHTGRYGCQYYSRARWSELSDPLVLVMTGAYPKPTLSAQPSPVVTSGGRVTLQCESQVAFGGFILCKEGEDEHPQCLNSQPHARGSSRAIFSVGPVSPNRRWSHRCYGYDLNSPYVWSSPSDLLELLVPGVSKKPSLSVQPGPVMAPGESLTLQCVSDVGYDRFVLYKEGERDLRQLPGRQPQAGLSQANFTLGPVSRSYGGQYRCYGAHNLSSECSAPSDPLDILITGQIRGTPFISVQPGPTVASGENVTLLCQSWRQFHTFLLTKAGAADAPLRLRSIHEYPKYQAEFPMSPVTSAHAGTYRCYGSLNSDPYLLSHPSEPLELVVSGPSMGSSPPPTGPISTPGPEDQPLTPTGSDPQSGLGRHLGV

[7] = molecular target: T7, LILRA5 (UniProt A6NI73 42-268, limits assumed); assay: ELISA, coated protein 100ng/well
T7 sequence (A6NI73 42-268 limits assumed): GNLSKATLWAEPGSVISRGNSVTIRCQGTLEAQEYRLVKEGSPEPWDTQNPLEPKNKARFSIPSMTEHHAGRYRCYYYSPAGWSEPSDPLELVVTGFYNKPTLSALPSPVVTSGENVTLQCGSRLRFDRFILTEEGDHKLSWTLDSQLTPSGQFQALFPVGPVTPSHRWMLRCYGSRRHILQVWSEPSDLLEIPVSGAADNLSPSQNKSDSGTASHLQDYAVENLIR

[8] = molecular target: T8, LILRA2 (UniProt Q8N149 24-449, limits assumed); assay: ELISA, coated protein 100ng/well
T8 sequence (Q8N149 24-449 limits assumed): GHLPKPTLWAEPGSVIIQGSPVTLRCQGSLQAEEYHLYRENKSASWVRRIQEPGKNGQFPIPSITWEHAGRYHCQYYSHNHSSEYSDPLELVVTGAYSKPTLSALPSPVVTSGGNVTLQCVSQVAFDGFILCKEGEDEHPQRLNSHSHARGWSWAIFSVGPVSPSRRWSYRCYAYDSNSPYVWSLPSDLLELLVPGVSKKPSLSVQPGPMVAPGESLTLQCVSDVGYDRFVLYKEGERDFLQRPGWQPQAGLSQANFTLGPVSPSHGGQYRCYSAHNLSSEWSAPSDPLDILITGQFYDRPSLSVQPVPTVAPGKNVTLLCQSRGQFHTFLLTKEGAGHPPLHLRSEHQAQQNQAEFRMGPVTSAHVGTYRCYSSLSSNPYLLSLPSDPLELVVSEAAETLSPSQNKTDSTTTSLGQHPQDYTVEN

[9] = molecular target: T9, LILRB5 (UniProt O75023 24-458, limits assumed); assay: ELISA, coated protein 100ng/well
T9 sequence (O75023 24-458 limits assumed): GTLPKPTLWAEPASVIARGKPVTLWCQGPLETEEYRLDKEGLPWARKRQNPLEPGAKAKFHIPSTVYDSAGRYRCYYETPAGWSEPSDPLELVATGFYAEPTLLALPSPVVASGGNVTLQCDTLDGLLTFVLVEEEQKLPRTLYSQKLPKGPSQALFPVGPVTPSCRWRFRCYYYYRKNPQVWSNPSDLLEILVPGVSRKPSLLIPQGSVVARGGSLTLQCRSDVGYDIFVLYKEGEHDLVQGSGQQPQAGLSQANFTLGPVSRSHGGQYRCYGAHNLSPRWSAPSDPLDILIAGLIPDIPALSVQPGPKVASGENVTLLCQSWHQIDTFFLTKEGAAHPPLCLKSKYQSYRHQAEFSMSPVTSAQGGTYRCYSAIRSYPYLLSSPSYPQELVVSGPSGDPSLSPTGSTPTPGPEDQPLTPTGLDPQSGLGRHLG

[10] = molecular target: T10, LILRA3 (UniProt Q8N6C8 24-439); assay: ELISA, coated protein 100ng/well
T10 sequence (Q8N6C8 24-439 limits assumed): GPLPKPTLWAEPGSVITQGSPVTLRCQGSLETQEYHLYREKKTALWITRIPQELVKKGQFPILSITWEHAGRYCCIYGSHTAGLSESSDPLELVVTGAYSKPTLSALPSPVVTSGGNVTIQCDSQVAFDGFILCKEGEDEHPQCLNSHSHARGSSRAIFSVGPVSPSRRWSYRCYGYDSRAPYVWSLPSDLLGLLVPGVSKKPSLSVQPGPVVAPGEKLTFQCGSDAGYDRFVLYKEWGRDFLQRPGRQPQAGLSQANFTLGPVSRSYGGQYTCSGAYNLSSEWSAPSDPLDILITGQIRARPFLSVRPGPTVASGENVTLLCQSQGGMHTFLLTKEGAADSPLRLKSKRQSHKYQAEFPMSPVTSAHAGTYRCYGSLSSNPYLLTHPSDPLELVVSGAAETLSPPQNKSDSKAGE

[11] = molecular target: T11, 人单核细胞白血病细胞(THP-1)表面LILRB4 (human, UniProt Q8NHJ6 22-448); assay: cell-based or functional assay
[12] = molecular target: T12, LILRB4抗原 (人LILRB4蛋白胞外段) (human, UniProt Q8NHJ6 22-259); assay: ELISA, coated LILRB4, Goat Anti-Mouse IgG-HRP
T12 construct: extracellular domain; Made in house from a synthesised gene

[13] = molecular target: T1, LILRB3; assay: ELISA, coated protein, antibody at 50μg/mL
[14] = molecular target: T2, LILRA4; assay: ELISA, coated protein, antibody at 50μg/mL
[15] = molecular target: T3, LILRA1; assay: ELISA, coated protein, antibody at 50μg/mL
[16] = molecular target: T4, LILRB1; assay: ELISA, coated protein, antibody at 50μg/mL
[17] = molecular target: T5, LILRA6; assay: ELISA, coated protein, antibody at 50μg/mL
[18] = molecular target: T6, LILRB2; assay: ELISA, coated protein, antibody at 50μg/mL
[19] = molecular target: T7, LILRA5; assay: ELISA, coated protein, antibody at 50μg/mL
[20] = molecular target: T8, LILRA2; assay: ELISA, coated protein, antibody at 50μg/mL
[21] = molecular target: T9, LILRB5; assay: ELISA, coated protein, antibody at 50μg/mL
[22] = molecular target: T10, LILRA3; assay: ELISA, coated protein, antibody at 50μg/mL
[23] = molecular target: T12, LILRB4抗原 (人LILRB4蛋白胞外段); assay: ELISA, coated protein, antibody at 50μg/mL
[24] = molecular target: T11, 人单核细胞白血病细胞(THP-1)表面LILRB4; assay: flow cytometry competition on THP-1 cells, competitor FITC-labelled ApoE 0.4μg/mL
[25] = molecular target: T11, 人单核细胞白血病细胞(THP-1)表面LILRB4; assay: flow cytometry on THP-1 cells, FITC goat anti-mouse IgG

T2 sequence (P59901 24-446 limits assumed): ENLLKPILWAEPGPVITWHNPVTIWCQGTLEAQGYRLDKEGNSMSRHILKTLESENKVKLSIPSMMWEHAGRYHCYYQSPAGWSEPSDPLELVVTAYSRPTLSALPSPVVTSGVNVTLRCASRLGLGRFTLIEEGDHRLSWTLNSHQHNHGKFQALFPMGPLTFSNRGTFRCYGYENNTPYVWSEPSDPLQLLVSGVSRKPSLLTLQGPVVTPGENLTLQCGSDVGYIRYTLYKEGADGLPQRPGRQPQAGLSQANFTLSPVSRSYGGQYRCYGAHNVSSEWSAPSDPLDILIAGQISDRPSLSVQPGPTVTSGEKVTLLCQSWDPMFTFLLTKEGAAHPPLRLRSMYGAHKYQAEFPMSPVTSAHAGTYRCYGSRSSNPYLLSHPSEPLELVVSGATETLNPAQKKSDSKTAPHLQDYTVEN
T3 sequence (O75019 17-461 limits assumed): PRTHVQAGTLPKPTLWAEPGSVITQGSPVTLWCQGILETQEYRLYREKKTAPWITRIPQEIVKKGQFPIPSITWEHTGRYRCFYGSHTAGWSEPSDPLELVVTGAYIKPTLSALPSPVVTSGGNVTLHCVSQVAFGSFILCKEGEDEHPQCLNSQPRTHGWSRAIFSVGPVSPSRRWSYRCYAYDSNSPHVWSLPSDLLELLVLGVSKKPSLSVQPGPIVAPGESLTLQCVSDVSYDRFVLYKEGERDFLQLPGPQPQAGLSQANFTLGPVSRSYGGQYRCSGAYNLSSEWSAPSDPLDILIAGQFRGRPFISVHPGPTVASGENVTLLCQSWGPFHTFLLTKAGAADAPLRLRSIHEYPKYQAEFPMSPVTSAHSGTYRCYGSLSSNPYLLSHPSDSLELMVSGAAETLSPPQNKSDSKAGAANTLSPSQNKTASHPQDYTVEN
T1 sequence (O75022 24-443 limits assumed): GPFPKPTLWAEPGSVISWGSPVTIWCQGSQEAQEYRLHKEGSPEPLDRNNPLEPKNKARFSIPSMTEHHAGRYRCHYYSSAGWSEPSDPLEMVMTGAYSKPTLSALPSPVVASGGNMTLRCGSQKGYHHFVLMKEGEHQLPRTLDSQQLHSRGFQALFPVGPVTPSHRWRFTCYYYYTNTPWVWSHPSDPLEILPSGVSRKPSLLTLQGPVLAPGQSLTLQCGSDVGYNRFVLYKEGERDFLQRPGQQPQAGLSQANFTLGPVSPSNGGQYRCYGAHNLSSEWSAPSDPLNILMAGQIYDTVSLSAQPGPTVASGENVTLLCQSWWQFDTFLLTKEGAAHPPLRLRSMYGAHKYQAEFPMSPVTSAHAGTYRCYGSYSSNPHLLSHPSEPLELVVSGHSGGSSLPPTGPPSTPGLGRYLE

binding result [1]: no binding (tested: 50μg/mL)
binding result [2]: no binding (tested: 50μg/mL)
binding result [3]: no binding (tested: 50μg/mL)
binding result [4]: no binding (tested: 50μg/mL)
binding result [5]: no binding (tested: 50μg/mL)
binding result [6]: no binding (tested: 50μg/mL)
binding result [7]: no binding (tested: 50μg/mL)
binding result [8]: no binding (tested: 50μg/mL)
binding result [9]: no binding (tested: 50μg/mL)
binding result [10]: no binding (tested: 50μg/mL)
IC50(μg/mL), 抑制THP-1分泌ARG1 (arginase activity in supernatant, with 0.5μg/mL ApoE) [11]: 257 µg/mL
EC50 [12]: 0.188 µg/mL
OD 450nm/630nm [13]: 0.05
OD 450nm/630nm [14]: 0.077
OD 450nm/630nm [15]: 0.103
OD 450nm/630nm [16]: 0.045
OD 450nm/630nm [17]: 0.053
OD 450nm/630nm [18]: 0.04
OD 450nm/630nm [19]: 0.066
OD 450nm/630nm [20]: 0.046
OD 450nm/630nm [21]: 0.176
OD 450nm/630nm [22]: 0.057
OD 450nm/630nm [23]: 2.72
IC50 [24]: 7.18 µg/mL
EC50 [25]: 4.31 µg/mL
B1: MG-Ⅰ 单克隆抗体 (mouse IgG1 / Ck full antibody) (antibody, V domains shown)
VH: EVKLEESGGGLVKPGGSLKLSCAASGFTFSSNTMSWVRQTPEKRLEWVATISSGGSYIYYRDSVKGRFTISRDNAKNTLYLQMSSLKSEDTAMYYCTSEGRSRDPYYYSMDYWGQGTSVTVSS
VL: DIVLTQTPLSLPVSLGDQASISCRSSQSLVHSNGNTYLHWYLQKPGQSPKLLIYKVSNRFSGVPDRFSGSGSGTDFTLKISRVEAEDLGVYFCSQSTHVPTFGAGTKLELKA
notes: also called 单克隆抗体MG-Ⅰ
